Columns and labels:
[1] = target: T1, human tenascin-R rCd4-His-FBG (rat; human, UniProt P05540 207-392, limits assumed); test: SPR, captured purified IgG4, 37 C
T1 construct: domain: domains 3 and 4; C-terminal FBG fusion; also called Hu TNR; human TNR rCd4-His-FBG; not shown: 6His tag
T1 sequence (chain (part 1 of 2)): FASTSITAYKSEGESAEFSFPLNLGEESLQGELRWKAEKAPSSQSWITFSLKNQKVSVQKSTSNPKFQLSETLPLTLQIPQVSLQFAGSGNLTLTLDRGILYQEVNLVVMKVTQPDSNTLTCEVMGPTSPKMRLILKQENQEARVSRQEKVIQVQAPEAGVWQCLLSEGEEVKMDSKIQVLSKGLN
T1 sequence (chain (part 2 of 2)): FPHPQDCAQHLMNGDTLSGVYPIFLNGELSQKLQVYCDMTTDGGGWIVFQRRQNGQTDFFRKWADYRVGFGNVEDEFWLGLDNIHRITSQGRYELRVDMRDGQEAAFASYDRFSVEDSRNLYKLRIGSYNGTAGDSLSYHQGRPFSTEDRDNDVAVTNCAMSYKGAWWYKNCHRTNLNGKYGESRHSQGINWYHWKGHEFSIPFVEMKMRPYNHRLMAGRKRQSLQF
Procedure: (§1) Detailed kinetic parameters were evaluated for the 9 prioritised IgG4 antibodies. Binding characteristics were determined for interaction with human, rat and dog TNC rCD4-His-FBG, and human TNR rCD4-His-FBG. Kinetic assays followed essentially the same protocols as for the off-rate determinations described above, with some modifications as follows. […] Purified anti-FBG IgG4 was diluted to a concentration of 3.5 nM in PBS, pH 7.4, 0.05% Tween-20 and injected into FC2 at a flow rate of 10 μl/min, 60 s contact time. […] Antigens were prepared by doubling dilution in PBS, pH 7.4, 0.05% Tween-20 (highest concentration 100 nM except mouse rCD4-His-FBG which was 7 nM). Assays were performed at 37° C. (30 μl/min, 120 s contact time; mouse rCD4-His-FBGFBG 10 μl/min, 60 s contact time), with both the flow cell and injection chamber equilibrated to this temperature. As before, kinetic parameters were determined by reference cell subtraction and fitting the sensogram experimental data assuming a 1:1 interaction using BIAevaluation software (GE, BR-1005-97).

[2] = target: T2, human tenascin-C rCd4-His-FBG (rat; human, UniProt P05540 207-392, limits assumed); test: SPR, captured purified IgG4, 37 C
T2 construct: domain: domains 3 and 4; C-terminal FBG fusion; biotinylated in the ELISA and HTRF screens; also called Hu TNC; human TNC rCd4-His-FBG; not shown: 6His tag
T2 sequence (chain (part 1 of 2)): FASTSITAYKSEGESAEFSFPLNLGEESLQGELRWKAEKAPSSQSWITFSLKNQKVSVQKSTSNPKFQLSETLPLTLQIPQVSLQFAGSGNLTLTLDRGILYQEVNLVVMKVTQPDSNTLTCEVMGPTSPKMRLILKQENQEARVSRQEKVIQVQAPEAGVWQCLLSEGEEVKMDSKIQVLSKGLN
T2 sequence (chain (part 2 of 2)): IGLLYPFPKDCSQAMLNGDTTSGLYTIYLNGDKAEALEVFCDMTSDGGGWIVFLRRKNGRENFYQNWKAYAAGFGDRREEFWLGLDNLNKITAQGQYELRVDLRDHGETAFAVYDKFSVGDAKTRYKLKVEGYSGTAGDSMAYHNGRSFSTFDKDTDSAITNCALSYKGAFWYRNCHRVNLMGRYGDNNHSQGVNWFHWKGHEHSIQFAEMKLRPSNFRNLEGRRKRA
Procedure: as §1

[3] = target: T3, rat tenascin-C rCd4-His-FBG (rat, UniProt P05540 207-392, limits assumed); test: SPR, captured purified IgG4, 37 C
T3 construct: domain: domains 3 and 4; C-terminal FBG fusion; also called Rat TNC; rat TNC rCD4-His-FBG; not shown: 6His tag
T3 sequence (chain (part 1 of 2)): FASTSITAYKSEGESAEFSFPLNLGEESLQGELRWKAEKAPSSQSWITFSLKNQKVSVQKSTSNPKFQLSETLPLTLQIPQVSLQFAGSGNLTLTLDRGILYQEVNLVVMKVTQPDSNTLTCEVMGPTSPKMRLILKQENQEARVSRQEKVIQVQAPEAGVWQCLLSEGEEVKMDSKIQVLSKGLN
T3 sequence (chain (part 2 of 2)): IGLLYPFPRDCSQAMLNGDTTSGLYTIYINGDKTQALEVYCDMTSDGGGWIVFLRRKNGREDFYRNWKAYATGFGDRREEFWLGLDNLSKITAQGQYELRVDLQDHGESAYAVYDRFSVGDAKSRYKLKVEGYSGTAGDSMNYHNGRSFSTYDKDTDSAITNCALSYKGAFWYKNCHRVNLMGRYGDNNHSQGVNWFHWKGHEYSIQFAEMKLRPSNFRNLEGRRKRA
Procedure: as §1

[4] = target: T4, dog tenascin-C rCD4-His-FBG (rat; dog, UniProt P05540 207-392, limits assumed); test: SPR, captured purified IgG4, 37 C
T4 construct: domain: domains 3 and 4; C-terminal FBG fusion; also called Dog TNC; not shown: 6His tag
T4 sequence (chain (part 1 of 2)): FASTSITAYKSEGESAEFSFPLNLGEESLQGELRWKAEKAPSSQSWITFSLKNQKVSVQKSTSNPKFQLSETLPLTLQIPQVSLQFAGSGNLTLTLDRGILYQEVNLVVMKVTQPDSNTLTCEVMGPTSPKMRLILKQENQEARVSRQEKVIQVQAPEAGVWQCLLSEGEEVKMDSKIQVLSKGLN
T4 sequence (chain (part 2 of 2)): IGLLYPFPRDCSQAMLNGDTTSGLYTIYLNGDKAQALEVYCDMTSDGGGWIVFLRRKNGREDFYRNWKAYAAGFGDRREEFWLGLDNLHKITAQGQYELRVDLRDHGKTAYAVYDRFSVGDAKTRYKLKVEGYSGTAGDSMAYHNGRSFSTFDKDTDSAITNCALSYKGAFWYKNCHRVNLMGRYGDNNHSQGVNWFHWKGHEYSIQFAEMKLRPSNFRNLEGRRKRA
Procedure: as §1

[5] = target: T5, mouse tenascin-C rCd4-His-FBG (rat; mouse, UniProt P05540 207-392, limits assumed); test: SPR, captured purified IgG4, 37 C
T5 construct: domain: domains 3 and 4; C-terminal FBG fusion; biotinylated in the ELISA screen; also called Mu TNC; mouse TNC rCd4-His-FBG; not shown: 6His tag
T5 sequence (chain (part 1 of 2)): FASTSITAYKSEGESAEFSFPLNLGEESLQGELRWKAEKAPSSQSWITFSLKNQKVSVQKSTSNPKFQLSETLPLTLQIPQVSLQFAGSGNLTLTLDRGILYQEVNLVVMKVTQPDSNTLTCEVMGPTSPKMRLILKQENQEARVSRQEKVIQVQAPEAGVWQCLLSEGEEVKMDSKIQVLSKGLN
T5 sequence (chain (part 2 of 2)): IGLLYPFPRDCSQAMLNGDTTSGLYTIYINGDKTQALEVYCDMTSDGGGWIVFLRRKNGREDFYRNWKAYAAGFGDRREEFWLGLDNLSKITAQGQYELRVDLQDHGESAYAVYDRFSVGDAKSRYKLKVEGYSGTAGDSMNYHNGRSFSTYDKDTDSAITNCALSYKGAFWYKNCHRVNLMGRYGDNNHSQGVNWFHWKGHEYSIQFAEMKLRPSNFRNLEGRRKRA
Procedure: as §1

[6] = target: T1, human tenascin-R rCd4-His-FBG; test: SPR off-rate screen, captured IgG4 supernatant, 25 C
Procedure: (§2) The 31 scFv of interest were sub-cloned into a human IgG4 expression vector for generation of antibodies as human IgG4 with a hinge-stabilising mutation (S241P; Angal et al, 1993). […] Briefly, surface plasmon resonance (SPR) experiments were performed using a BIAcore T100 instrument and followed the protocol according to the Human antibody capture kit protocol (GE, BR-1008-39). For off-rate screening, 10,000 response units (RU) of anti-human Fc IgG (GE, BR-1008-39) was immobilised on flow-cells (FC1 and FC2) of a Series 5 CM5 dextran sensor chip (BR-1005-30) using EDC/NHS cross-linking chemistry according to the amine coupling kit protocol (GE, BR-1000-50). Culture supernatants containing expressed IgG4 were diluted 1:2 with 2×PBS-T and injected into FC2 (flowrate 5 μl/min, 60 s contact time) to enable antibody capture at 25° C. […] A fixed concentration of antigen (15 nM of human and mouse TNC rCd4-His-FBG and 100 nM of human TNR rCd4-His-FBG) was injected with a flow-path via FC 1 (reference flow cell) and FC 2 (antibody capture flow cell), with a flow rate of 30 μl/min, and the association and dissociation phases measured over 1 and 5 min time periods, respectively. Regeneration of the binding surface employed 3M MgCl₂ with 30 s contact time. Off rates were determined by reference cell subtraction and fitting the sensogram experimental data assuming a 1:1 interaction using BIAevaluation software (GE, BR-1005-97).

[7] = target: T2, human tenascin-C rCd4-His-FBG; test: as above
Procedure: as §2

[8] = target: T5, mouse tenascin-C rCd4-His-FBG; test: as above
Procedure: as §2

Human FGB-rCd4 = target: T6, Human FGB-rCd4; test: ELISA (DELFIA), antigen coated on the well, purified Fab at 50 nM, detected with anti-kappa or anti-lambda mAb and Europium-conjugated anti-mouse mAb
T6 construct: Not the same construct as m1, which has the FBG at the C terminus; also called human TNC FBG-rCD4; human tenascin-C FBG-rCd4-His (FBG at the N terminus of the rat Cd4 tag); not shown: rat Cd4 (domains 3 and 4) tag, the C-terminal His6 tag and the vector-derived junction residues of pBIOCAM4
T6 chain: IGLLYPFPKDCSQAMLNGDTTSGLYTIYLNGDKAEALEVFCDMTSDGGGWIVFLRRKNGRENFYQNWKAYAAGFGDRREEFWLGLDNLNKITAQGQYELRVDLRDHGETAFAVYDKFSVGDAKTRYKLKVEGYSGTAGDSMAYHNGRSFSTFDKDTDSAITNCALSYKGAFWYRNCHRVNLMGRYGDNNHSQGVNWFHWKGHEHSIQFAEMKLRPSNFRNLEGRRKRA

[9] = target: T1, human tenascin-R rCd4-His-FBG; test: SPR steady state, captured Fab, 25 C
Procedure: (§3) Experiments were performed using a BIAcore T100 instrument with CM5 sensor chip according to the protocol provided with the Human Fab Capture Kit (GE, 28-9583-25). […] After reference signal subtraction, the data was fitted to a global 1:1 fit using the T100 BIAevaluation software (FIGS. 6 a-d).

[10] = target: T2, human tenascin-C rCd4-His-FBG; test: SPR, captured Fab, 25 C
Procedure: as §3

[11] = target: T5, mouse tenascin-C rCd4-His-FBG; test: SPR, captured Fab, 25 C
Procedure: as §3

human Fc-His-FBG = target: T7, human Fc-His-FBG (human, UniProt P24821 1974-2201); test: cell-based or functional assay
T7 sequence: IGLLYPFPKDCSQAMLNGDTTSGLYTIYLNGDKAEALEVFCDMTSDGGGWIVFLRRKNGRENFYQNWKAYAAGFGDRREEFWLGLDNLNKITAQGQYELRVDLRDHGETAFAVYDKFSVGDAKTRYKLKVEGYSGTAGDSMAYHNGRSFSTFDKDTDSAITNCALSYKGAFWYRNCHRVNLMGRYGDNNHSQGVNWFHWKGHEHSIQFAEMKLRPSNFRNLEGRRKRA

[12] = target: T5, mouse tenascin-C rCd4-His-FBG; test: SPR, parental antibody

B1: 160_01_A4 human IgG4 (antibody, V domains shown)
VH: EVRLVQSGAEVKKPGASVKVSCKVSGYTLTELSMHWVRQAPGKGLEWMGGFDPEDGETIYAQKFQGRVTMTEDTSTDTAYMELSSLRSEDTAVYYCATAQKETLGNAIWGQGTLVTVSS
VL: DIQMTQSPASLPTSVGDRVTITCRASQYIQGFLNWYQQKPGKAPRLLIYAASTLQDGVPSRFSGSGYGTDFTLTISSLQPEDFATYYCQQSYSTPWTFGQGTKVEIKR
notes: human IgG4 with hinge S241P; also called Antibody 160 01 A4 (derived from 2A5)
- Kd [1]: 15.2 nM
- fold lower affinity than for human TNC FBG [1]: > 70 fold
- koff [1]: 0.00399 s⁻¹
- kon [1]: 260000 M⁻¹ s⁻¹
- Kd [2]: 0.21 nM
- koff [2]: 0.0005 s⁻¹
- kon [2]: 2.35e+06 M⁻¹ s⁻¹
- Kd [3]: 1.49 nM
- koff [3]: 0.00189 s⁻¹
- kon [3]: 1.27e+06 M⁻¹ s⁻¹
- Kd [4]: 0.094 nM
- koff [4]: 0.00018 s⁻¹
- kon [4]: 1.9e+06 M⁻¹ s⁻¹
- Kd [5]: 1.23 nM
- koff [5]: 0.000146 s⁻¹
- kon [5]: 118000 M⁻¹ s⁻¹
- koff [6]: 0.011 s⁻¹
- koff [7]: 6.7e-06 s⁻¹
- koff [8]: 5.9e-06 s⁻¹

B2: Fab F3 (Fab, V domains shown)
VH: EVQLLESGGGLVQPGGSLRLSCAASGFTFSSYGMHWVRQAPGKGLEWVAVISYDGSNKYYADSVKGRFTISRGNSKNTLYLQMNSLKAEDTAVYYCAREGYDQLFSAESNAFDIWGQGTLVTVSS
VL: NFMLAQPHSVSESPGKTVTISCTRSSGSIASYFVQWFQQRPGSAPTAVIYEDNQRPSGVPDRFSGSIDSSSNSASLTISGLKTEDEADYYCQSYDSSNWVFGGGTKVTVLG
notes: monomeric Fab
- binding result (Human FGB-rCd4): binds
- Kd [9]: 1810 nM
- Kd [10]: 27.4 nM
- koff [10]: 0.00346 s⁻¹
- kon [10]: 126000 M⁻¹ s⁻¹
- Kd [11]: 70.6 nM
- koff [11]: 0.00642 s⁻¹
- kon [11]: 91000 M⁻¹ s⁻¹
- IC50, inhibition of Fc-His-HuFBG-evoked IL-8 release, THP1-Blue cells (human Fc-His-FBG): 13.8 nM
- IC50, inhibition of Fc-His-HuFBG-evoked alkaline phosphatase, THP1-Blue cells (human Fc-His-FBG): 8.4 nM
- fold difference in affinity between human and mouse rCd4-his-FBG [12]: 2.6 fold
